Some targets named below: HLA-B*46:01; HLA-B*18:01; HLA-A*02:03; HLA-B*39:01; HLA-B*51:01; HLA-A*02:19; HLA-B*27:03; HLA-A*68:02; HLA-A*02:01; HLA-B*15:17; HLA-A*26:01; HLA-A*23:01; HLA-A*24:03; HLA-A*02:16; HLA-B*57:01; HLA-A*02:12; HLA-A*69:01; HLA-A*29:02; HLA-A*02:11; HLA-A*03:01; HLA-B*15:01.
Holding throughout (assay): IEDB peptide-MHC binding, purified MHC/competitive/fluorescence; filed as Kd, often an IC50 or EC50 that approximates it; ≥ and ≤ were set here for values at or beyond the usual limits of such assays
[1] abbreviates: source organism: Shigella boydii CDC 3083-94.
The mark [2] stands for this setting: source organism: Campylobacter jejuni subsp. jejuni NCTC 11168 = ATCC 700819.
The mark [3] stands for this setting: source organism: Bacillus anthracis str. 'Ames Ancestor'.
[4] abbreviates: source organism: Burkholderia pseudomallei K96243.
Setting [5] is: source organism: Rickettsia typhi str. Wilmington.

As a reminder, the Kd is a measure of binding affinity in units of concentration. Consider RNNDPTLPY, for which the Kd in the test with HLA-B*46:01 (setting [1]), in the test with HLA-B*18:01 (setting [1]), in the test with HLA-A*02:03 (setting [1]), with HLA-B*39:01 (setting [1]), with HLA-B*51:01 (setting [1]) and with HLA-A*02:19 (setting [1]) was at least 20 µM in each case. The Kd in the test with HLA-B*27:03 (setting [1]), in the test with HLA-A*68:02 (setting [1]), with HLA-A*02:01 (setting [1]), with HLA-B*15:17 (setting [1]), with HLA-A*26:01 (setting [1]) and in the test with HLA-A*23:01 (setting [1]) was at least 20 µM in each case. In addition, the Kd in the test with HLA-A*24:03 (setting [1]), in the test with HLA-A*02:16 (setting [1]), with HLA-B*57:01 (setting [1]), with HLA-A*02:12 (setting [1]) and in the test with HLA-A*69:01 (setting [1]) was at least 20 µM throughout.

For the sequence KGMKIQHFK, the Kd with HLA-B*46:01 (setting [2]), with HLA-A*29:02 (setting [2]), in the test with HLA-B*18:01 (setting [2]), in the test with HLA-A*02:11 (setting [2]), with HLA-A*02:03 (setting [2]) and with HLA-B*39:01 (setting [2]) was at least 20 µM throughout. Further, the Kd with HLA-B*51:01 (setting [2]) is at least 20 µM; in the test with HLA-A*02:19 (setting [2]) it was at least 20 µM; with HLA-B*27:03 (setting [2]), at least 20 µM; with HLA-A*68:02 (setting [2]), at least 20 µM; with HLA-A*02:01 (setting [2]), at least 20 µM; in the test with HLA-A*03:01 (setting [2]), 0.0679 µM. Moreover, the dissociation constant Kd with HLA-A*26:01 (setting [2]), with HLA-A*23:01 (setting [2]), in the test with HLA-B*15:01 (setting [2]), in the test with HLA-A*24:03 (setting [2]), in the test with HLA-A*02:16 (setting [2]) and with HLA-B*57:01 (setting [2]) was at least 20 µM each time. Besides, the Kd in the test with HLA-A*02:12 (setting [2]) and in the test with HLA-A*69:01 (setting [2]) was at least 20 µM in each case.

MTQNISNDK: the dissociation constant (Kd) with HLA-B*46:01 (setting [3]), in the test with HLA-A*29:02 (setting [3]), in the test with HLA-B*18:01 (setting [3]), with HLA-A*02:11 (setting [3]), with HLA-A*02:03 (setting [3]) and with HLA-B*39:01 (setting [3]) was at least 20 µM in each case. The Kd was at least 20 µM with HLA-B*51:01 (setting [3]); at least 20 µM with HLA-A*02:19 (setting [3]); at least 20 µM with HLA-B*27:03 (setting [3]); at least 20 µM in the test with HLA-A*68:02 (setting [3]); at least 20 µM with HLA-A*02:01 (setting [3]); 6 µM with HLA-A*03:01 (setting [3]). For the same sequence, the Kd with HLA-B*15:17 (setting [3]), in the test with HLA-A*26:01 (setting [3]), in the test with HLA-B*15:01 (setting [3]), with HLA-A*24:03 (setting [3]), with HLA-A*02:16 (setting [3]) and in the test with HLA-B*57:01 (setting [3]) was at least 20 µM throughout. Also, the Kd with HLA-A*02:12 (setting [3]) and with HLA-A*69:01 (setting [3]) was at least 20 µM in each case.

As to DELWRGLLA, the Kd was at least 20 µM in the test with HLA-B*46:01 (setting [4]); 0.0813 µM with HLA-B*18:01 (setting [4]); at least 20 µM in the test with HLA-A*02:03 (setting [4]); at least 20 µM with HLA-B*39:01 (setting [4]); at least 20 µM with HLA-B*51:01 (setting [4]); at least 20 µM with HLA-A*02:19 (setting [4]). Besides, the equilibrium dissociation constant (Kd) in the test with HLA-B*27:03 (setting [4]), in the test with HLA-A*68:02 (setting [4]), with HLA-A*02:01 (setting [4]), with HLA-A*03:01 (setting [4]), in the test with HLA-A*26:01 (setting [4]) and with HLA-A*23:01 (setting [4]) was at least 20 µM throughout. The Kd with HLA-B*15:01 (setting [4]), with HLA-A*24:03 (setting [4]), in the test with HLA-A*02:16 (setting [4]), in the test with HLA-B*57:01 (setting [4]) and with HLA-A*02:12 (setting [4]) was at least 20 µM throughout.

As for QLEVRSTEV, the Kd with HLA-B*46:01 (setting [5]), in the test with HLA-A*29:02 (setting [5]), with HLA-B*18:01 (setting [5]), with HLA-A*02:11 (setting [5]), in the test with HLA-B*39:01 (setting [5]) and with HLA-B*51:01 (setting [5]) was at least 20 µM throughout. Moreover, the Kd in the test with HLA-B*27:03 (setting [5]), with HLA-A*02:01 (setting [5]), in the test with HLA-A*03:01 (setting [5]), with HLA-B*15:17 (setting [5]), with HLA-A*26:01 (setting [5]) and with HLA-A*23:01 (setting [5]) was at least 20 µM in each case. Also, the Kd with HLA-B*15:01 (setting [5]) is at least 20 µM; in the test with HLA-A*24:03 (setting [5]), at least 20 µM; with HLA-A*02:16 (setting [5]), at least 20 µM; in the test with HLA-B*57:01 (setting [5]), at least 20 µM; with HLA-A*02:12 (setting [5]) it was 0.43 µM.

The values above are taken from the Immune Epitope Database (IEDB).
